# Laboratory results taken from patent US20250136721A1 (GlaxoSmithKline, published 2025).
# Substitutions are numbered along the chain they refer to. Numbers in names are those of the source.
# B1: DOM1H-131-206 C-terminal ASTKG (protein)
# VH: EVQLLESGGGLVQPGGSLRLSCAASGFTFAHETMVWVRQAPGKGLEWVSHIPPDGQDPFYADSVKGRFTISRDNSKNTLYLQMNSLRAEDTAVYHCALLPKRGPWFDYWGQGTLVTVSSASTKG
# B2: DOM1H-131-206 P14T + C-terminal ASTKG (protein, name in Kabat numbering)
# VH: B1 VH with P14T
# B3: DOM1H-131-206 P14A + C-terminal ASTKG (protein)
# VH: B1 VH with P14A
# B4: DOM1H-131-206 P14K + C-terminal ASTKG (protein, name in Kabat numbering)
# VH: B1 VH with P14K
# B5: DOM1H-131-206 P14K + C-terminal A (protein, name in Kabat numbering)
# VH: EVQLLESGGGLVQKGGSLRLSCAASGFTFAHETMVWVRQAPGKGLEWVSHIPPDGQDPFYADSVKGRFTISRDNSKNTLYLQMNSLRAEDTAVYHCALLPKRGPWFDYWGQGTLVTVSSA
# B6: DOM1H-131-206 P14A + C-terminal A (protein)
# VH: B5 VH with K14A
# B7: DOM1H-131-206 P14Q + C-terminal A (protein, name in Kabat numbering)
# VH: B5 VH with K14Q
# B8: DOM1H-131-206 C-terminal S deletion (ΔS) (protein)
# VH: EVQLLESGGGLVQPGGSLRLSCAASGFTFAHETMVWVRQAPGKGLEWVSHIPPDGQDPFYADSVKGRFTISRDNSKNTLYLQMNSLRAEDTAVYHCALLPKRGPWFDYWGQGTLVTVS
# B9: DOM1H-131-206 T110A (protein, name in Kabat numbering)
# VH: EVQLLESGGGLVQPGGSLRLSCAASGFTFAHETMVWVRQAPGKGLEWVSHIPPDGQDPFYADSVKGRFTISRDNSKNTLYLQMNSLRAEDTAVYHCALLPKRGPWFDYWGQGTLVAVSS
# B10: DOM1H-131-206 P14K (protein, name in Kabat numbering)
# VH: B9 VH with P14K, A116T
# B11: DOM1H-131-206 P14Q (protein, name in Kabat numbering)
# VH: B9 VH with P14Q, A116T
# B12: DOM1H-131-206 L11A (protein, name in Kabat numbering)
# VH: B9 VH with L11A, A116T
# B13: DOM1H-131-206 S112A (protein, name in Kabat numbering)
# VH: B9 VH with A116T, S118A
# B14: DOM1H-131-206 L108A (protein, name in Kabat numbering)
# VH: B9 VH with L114A, A116T
# B15: DOM1H-131-206 P14E (protein, name in Kabat numbering)
# VH: B9 VH with P14E, A116T
# B16: DOM1H-131-206 P14T (protein, name in Kabat numbering)
# VH: B9 VH with P14T, A116T
# B17: DOM1H-131-206 C-terminal AS (protein)
# VH: EVQLLESGGGLVQPGGSLRLSCAASGFTFAHETMVWVRQAPGKGLEWVSHIPPDGQDPFYADSVKGRFTISRDNSKNTLYLQMNSLRAEDTAVYHCALLPKRGPWFDYWGQGTLVTVSSAS
# B18: DT04-H-033 C-terminal AAA (protein)
# VH: EVQLLESGGGLVQPGGSLRLSCAASGFTFADYGMAWVRQAPGKGLEWVSTISYNGLYTYYADSVKGRTISRDNSKNTLYLQMNSLRAEDTAVYYCAKYEYSPESDFDYWGQGTLVTVSSAAA
# B19: DT04-H-033 C-terminal AST (protein)
# VH: B18 VH with A121S, A122T
# B20: DT04-H-033 C-terminal A (protein)
# VH: EVQLLESGGGLVQPGGSLRLSCAASGFTFADYGMAWVRQAPGKGLEWVSTISYNGLYTYYADSVKGRTISRDNSKNTLYLQMNSLRAEDTAVYYCAKYEYSPESDFDYWGQGTLVTVSSA
# B21: DT04-H-033 C-terminal AS (protein)
# VH: EVQLLESGGGLVQPGGSLRLSCAASGFTFADYGMAWVRQAPGKGLEWVSTISYNGLYTYYADSVKGRTISRDNSKNTLYLQMNSLRAEDTAVYYCAKYEYSPESDFDYWGQGTLVTVSSAS
# B22: DOM1H-131-206 C-terminal ASTK (protein)
# VH: EVQLLESGGGLVQPGGSLRLSCAASGFTFAHETMVWVRQAPGKGLEWVSHIPPDGQDPFYADSVKGRFTISRDNSKNTLYLQMNSLRAEDTAVYHCALLPKRGPWFDYWGQGTLVTVSSASTK
# B23: DOM1H-131-206 L108Q (protein, name in Kabat numbering)
# VH: B9 VH with L114Q, A116T
# B24: DOM1H-131-206 P14A (protein)
# VH: B9 VH with P14A, A116T
# B25: DOM1H-131-206 Q13A (protein, name in Kabat numbering)
# VH: B9 VH with Q13A, A116T
# Biological target: pre-existing anti-VH ADA in human serum
# Assay: ADA confirmation assay (MSD): 10 ug/mL test material against labelled DOM1H-131-206, mean of 10 sera
row,Mean % inhibition of signal in confirmation assay [%],Binder
1,1.77,B1
2,17.2,B2
3,11.9,B3
4,25,B4
5,29.1,B5
6,8.76,B6
7,29.7,B7
8,44.7,B8
9,78.8,B9
10,46.7,B10
11,52.9,B11
12,98,B12
13,77.1,B13
14,94.3,B14
15,47.2,B15
16,68.9,B16

# Biological target: pre-existing anti-VH ADA in human serum
# Assay: as above
# Remark: another data set of the same source
row,Mean % inhibition of signal in confirmation assay [%],Binder
1,16.3,B17
2,28.3,B1
3,11,B18
4,14,B19
5,12.5,B20
6,8.26,B21
7,19.6,B22
8,90.9,B23
9,58.3,B24
10,99.2,B25

# Biological target: pre-existing anti-VH ADA in human serum
# Assay: ADA confirmation assay (MSD): 10 ug/mL test material against labelled DOM1H-131-206; share of 10 ADA-positive sera with binding
row,% subjects with ADA binding (10 subjects) (% of subjects),Binder
1,10,B4
2,10,B5
3,20,B7
4,40,B8
5,100,B9
6,50,B10
7,60,B11
8,100,B12
9,80,B13
10,100,B14
11,60,B15
12,100,B16

# Biological target: pre-existing anti-VH ADA in human serum
# Assay: as above
# Remark: another data set of the same source
row,% subjects with ADA binding (10 subjects) (% of subjects),Binder
1,40,B1
2,40,B22
3,100,B23
4,100,B24
5,100,B25
